Drawing on patent US20240166695A1, “PEPTIDIC POSITIVE ALLOSTERIC MODULATORS TARGETING TRPV1” (priority 2021, published 2024), this text covers Apparent KD (FRET ratio fit), FRET ratio max and FRET efficiency for three molecules.

For test [1], the target named is TRPV1-YFP. Briefly: FRET ratio regression, design-CFP and TRPV1-YFP co-expressed in HEK293 cells. Set-up: Apparent KD (FRET ratio fit): unit not given here.
The target of test [2] is TRPV1-YFP. In words: spectraFRET in live HEK293 cells, CFP on design, YFP on TRPV1.
The target in test [3] is TRPV1-YFP. In words: spectraFRET in live HEK293 cells, CFP on design, YFP on TRPV1; indistinguishable from CFP+YFP negative control.

B1: De1-CFP (designed binder, not shown: large carriers)
chain: NGYSSEDKLRIAKRHLLPKQIERNALKKGELFVSEFAILGIILFYTDEAGVRGLEREISKLCRKAVKQLLLDKSTTSSHASGFHLHDYLGVMR
As to B1, in the test with TRPV1-YFP [1], the Apparent KD (FRET ratio fit) was 120000 and the FRET ratio max was determined as 3.86.

B2: De2-CFP (designed binder, not shown: large carriers)
chain: NGYWSEDKERIAKRHLLPKQIERNALKKGELKVWEFAIFGIILFYTWEAGVRGLEREISKLCRKAVKQLLLDKSTTRSWASGFHLHDYLGVMR
Take B2: in the test with TRPV1-YFP [1], the Apparent KD (FRET ratio fit) stood at 75000 and the FRET ratio max is 2.35. For the same molecule, the FRET efficiency in the test with TRPV1-YFP [2] was 7.4%.

B3: De4-CFP (designed binder, not shown: large carriers)
chain: LPESPRFAQKIWQQSVIGDYLARFKNDRVKALKAMEDSSNNSSMHRFAEFFAKAFEDLHRYLEEL
B3: the Apparent KD (FRET ratio fit) in the test with TRPV1-YFP [1] came out at 9.5e+09. This molecule displayed an FRET efficiency with TRPV1-YFP [3] of 3.8%.
